Reference: article PMC3662692

T1: caveolin-1 (human (endogenous in Chang cells)), Q03135
T1 chain: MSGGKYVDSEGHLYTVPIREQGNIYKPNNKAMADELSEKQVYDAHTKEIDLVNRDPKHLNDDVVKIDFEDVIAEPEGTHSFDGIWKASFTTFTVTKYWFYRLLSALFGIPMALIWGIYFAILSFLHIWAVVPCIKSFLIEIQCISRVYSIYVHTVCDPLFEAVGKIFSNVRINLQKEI


Key:
[1] = biological target: phospholipase Cγ1 (PLCγ1) (UniProt P19174); assay: biotin-peptide streptavidin-agarose pull-down, Western blot; details: reference: non-phosphorylated Cav1 peptide; sites Y14
[2] = biological target: p85 regulatory subunit of PI3 kinase (PI3K-p85; p85α in Table 1) (UniProt P27986); assay: as above; details: reference: non-phosphorylated Cav1 peptide; sites Y14
[3] = biological target: T1, caveolin-1 (human (endogenous in Chang …)); assay: co-IP; as a1, but Chang cells infected with N138 (PorBIB, P+) at MOI 20 for 1 h; endogenous Cav1 precipitated, Western blot; details: remark: other sources report otherwise
[4] = biological target: T1, caveolin-1 (human (endogenous in Chang …)); assay: co-IP; endogenous Cav1 precipitated with anti-Caveolin antibody (BD Transduction) and Protein G magnetic beads from Chang cell lysates (20 mM Tris, 150 mM NaCl, 1% Triton-X-100, pH 7.5); cells not infected or infected with N927 (PorBIA, P-) at MOI 20 for 1 h; in one experiment PLCγ1 inhibitor U73122 (10 µM) added 30 min before infection; Western blot; details: remark: other sources report otherwise

Molecule	binding against the reference [1]	binding against the reference [2]	relative amount of Vav2 in the Cav1 precipitate, cells infected with N138 (non-infected cells = 100%) [3] [%]	relative amount of Vav2 in the Cav1 precipitate, cells infected with N927 (non-infected cells = 100%) [4] [%]	relative amount of Vav2 in the Cav1 precipitate, non-infected cells (reference) [4] [%]
caveolin-1 (Cav1) 7-21 (from UniProt Q03135) Cav1 pY14 peptide	gained	gained	–	–	–
Vav2, P52735 1-878 (natural protein) MEQWRQCGRWLIDCKVLPPNHRVVWPSAVVFDLAQALRDGVLLCQLLHNLSPGSIDLKDINFRPQMSQFLCLKNIRTFLKVCHDKFGLRNSELFDPFDLFDVRDFGKVISAVSRLSLHSIAQNKGIRPFPSEETTENDDDVYRSLEELADEHDLGEDIYDCVPCEDGGDDIYEDIIKVEVQQPMIRYMQKMGMTEDDKRNCCLLEIQETEAKYYRTLEDIEKNYMSPLRLVLSPADMAAVFINLEDLIKVHHSFLRAIDVSVMVGGSTLAKVFLDFKERLLIYGEYCSHMEHAQNTLNQLLASREDFRQKVEECTLKVQDGKFKLQDLLVVPMQRVLKYHLLLKELLSHSAERPERQQLKEALEAMQDLAMYINEVKRDKETLRKISEFQSSIENLQVKLEEFGRPKIDGELKVRSIVNHTKQDRYLFLFDKVVIVCKRKGYSYELKEIIELLFHKMTDDPMNNKDVKKSHGKMWSYGFYLIHLQGKQGFQFFCKTEDMKRKWMEQFEMAMSNIKPDKANANHHSFQMYTFDKTTNCKACKMFLRGTFYQGYMCTKCGVGAHKECLEVIPPCKFTSPADLDASGAGPGPKMVAMQNYHGNPAPPGKPVLTFQTGDVLELLRGDPESPWWEGRLVQTRKSGYFPSSSVKPCPVDGRPPISRPPSREIDYTAYPWFAGNMERQQTDNLLKSHASGTYLIRERPAEAERFAISIKFNDEVKHIKVVEKDNWIHITEAKKFDSLLELVEYYQCHSLKESFKQLDTTLKYPYKSRERSASRASSRSPASCASYNFSFLSPQGLSFASQGPSAPFWSVFTPRVIGTAVARYNFAARDMRELSLREGDVVRIYSRIGGDQGWWKGETNGRIGWFPSTYVEEEGIQ	–	–	99	50	100
